Laboratory results reported in the RNAGym collection of RNA variant scans (doi:10.1073/pnas.2313332121).
Fewer inactive variants are shown than the library holds.

B1: TPR 5TU (parent)
chain: GGAUCUUCUCGAUCUAACAAAAAAGACAAAUCUGCCACAAAGCUUGAGAGCAUCUUCGGAUGCAGAGGCGGCAGCCUUCGGUGGCGCGAUAGCGCCAACGUUCUCAACUAUGACACGCAAAACGCGUGCUCCGUUGAAUGGAGUUUAUCAUG

Variants of: B1
Assay: polymerase ribozyme fitness, log enrichment relative to wild type (log ratio); higher = more active; in vitro selection for triplet polymerase activity
Outline: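 For each subunit of a heterodimeric triplet polymerase ribozyme, a mutant library was built by PCR and transcribed, then taken through a single in vitro selection round in triplicate. Selection involved annealing to a biotinylated primer, the partner subunit and triplets, incubation frozen at −7 °C, gel excision of extended constructs, capture on streptavidin beads and RT-PCR. Genotypes were retained after Illumina sequencing of inputs and outputs only with ≥10 input reads and ≥1 read in each output. Fitness is defined as the logarithm of a genotype's enrichment relative to wild-type enrichment, using inverse-variance-weighted averages across replicates, with the logarithm taken to base 2.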

Variant	polymerase ribozyme fitness (log ratio)
GGAUCUUCUCGAUCUAACAAAAAAGACAAAUCUGCCACAAAGCUUGAGAACAUCUUCGGAUGCAGAGGCGGCAGCCUUCGGUGGCGCGAUAGCGCUAACGUUCUCAACUAUGACACGCAAAACGCGUGCUCCGUUGAAUGGAGUUUAUCAUG	-1.47
GGAUCUUCUCGAUCUAACAAAAAAGACAAAUCUGCCACAAAGCUUGAGAGAAUCUUCGGAUGCAGGGGCGACAGCCUUCCGUGGCGCGAUAGCCCCAACGUUCUCAACUAUGGCACGCAAAACGCGUGCUCCGUUGAAUGGAGUUUAUCAUG	≤ -4.2
GGAUCUUCUCGAUCUAACAAAAAAGACAAAUCGGCCACAAAGCUUGAGAACAUCUUCGGAUGGAGAGGCGGCAGCCUUCGGUGGCGCGAUAGCAGCAACGUUCUCAACUAUGACAUGCAAAACGCGUGCUCCGUUGAAUGGAGUUUAUCAUG	≤ -4.2
GGAUCUUCUCGAUCUAACAAAAAAGACAAAUCUGCCACAAAGCUUGAGAGCAUCUUCGGAUGCAGAGGCGGCAGCCUUCGGUGACGCGAUAGCGCCAACGUUCUCAACUAUGACACGCAAAACGCGUGCUCCGUUCAAUGGAGUUUAUCAUG	-3.25
GGAUCUUCUCGAUCUAACAAAAAACACAAAUCUGCCACAAAGCUUGAGAGCAUCUUCGGAUGCAGAGGCGGCAGCCUUCGGUGGCGCGAUAGUGCCAACGUUCUCAACUAUGACACGCAAAACGCGUGCUCCGUUGAAUGGAGUUUAUCAUG	-3.59
GGAUCUUCUUGAUCUAACAAAAAAGACAAAUCUGCCACAGAGCUUGAGAGCAUCUUCGGAUGCAGAGGCGGCAGCCUUCGGUGGCGCGAUAGCGCCAACGUUCUGAACUAUGACACGCAAAACGCGUGCUCCGUUGAAUGGAGUUUAUCAUG	≤ -4.2
GGAUCUUCUCGAUCUAACAAAUAAGACAAAUCUGCCACAAAGCUUGAGAGCAUCUUCGGAUGCAGAGGCGGCAGCCUUCGGUGGCGAGAUAGCGCCAACGUUCUCAACUAUGACACGCAAAACGCGUGCUCCGUUGAAUGGAGUUUAUCAUG	-4.14
GGAUCUUCUCGAUCUAACAAAAAAGACAAAUCUGCCACAAAGCUUGAGAGCAUCUUCGGAUGCAGAGGCGGCAGCCUUCGGUGGCGCGAUAGUUCCAACGUUCUCAACUAUGACACGCAAAACGCGUGCUCCGUUGAAUGGAGUUUAUCAUG	-1.43
GGAUCUUCUCGAUCUAACAAAAAAGACAAAUCUGCCACAAAGCUUGAGAGCAUCUUCGGAUGCAGAGGCGGCAGCCUUCGGUGGCGCGAUAGCGCCAACGUUCUCAACUAUGUCACGCAAAACGCGUGCUCCGUUGAAUGGAGUUCAUCAUG	-1.49
GGAUCUUCUCGAUCUAACAAAAAAGAUAAAUCUGCCACAAAGCUUGAGAGCAUCUUCGGAUGCAGAGGCGGCAGCCUUCGGUGGCUCGAUAGCGCCAAGGUUCUCAACUAUGACACGCAAAACGCGUGCUCCGUUGAAUGGAGUUUAUCAUG	≤ -4.2
GGAUCUGCUCGAUCUAACAAAAAAGACAAAUCUGCCACAAAGCUUGAGACCAUCUUCUGAUGUAGAGGCGGCAGCAUUCGGUGGCGCGAUAACGCCAACGUUCUCAACUAUGACACGCAAAACGCGUGCUCCGUUGAAUGGAGUUUAUGAUG	≤ -4.2
GGAUCUUCUCGAUCUAACAAAAAAGACAAAUCUGCCACAAAGCUUGAGAGCAUCAUCGGAAGCAGAGGCGGCAGCCUUCGGUGGCGCGAUAGCGCCAACGUUCUCAACUAUGACACGCAAAACGCGUGCUCCGUUGAAUGGAGUUUAUCAUG	-3.16
GGAUCUUCUCGAUCUAACAAAAAAGACAAAUCUGCCACAAAGCUUGAGAGCAUCUUCGGAUGCAGAGGCGGCAGCCUUCGGUGGCGCGAUAGCGCCAACGUUCUCAACUAUGAUACGCAAAACGCGUGCUCCGUUGAAUCGAGUUUAUCCUG	≤ -4.2
GGAUCUUCUCGAUCUAAUAAAAAAGACAAAUCUGCCACAUAGCUUGAGAGCAUCUUCGGAUGCAGAGGCGGCAGCCUUCGGUGGCGCGAUAGCGCCAACGUUCUCAACUAUGACACGCAAAACGCGUGCUCCGUUGAAUGGACUUUAUCAUG	-2.98
GGUUCUUCUCGAUCUAACAAAAAAGACAAAUCUGCCACAAAGCUUGAGAGCAUCUUCGGAUGCAGAGGCGGCAGCCUUCGGUGGUGCGAUAGCGCUAACGUUCUCAAGUAUGACACGCAAAACGCGUGCUCCGUUGAAUCGAGUUUAUCAUG	≤ -4.2
GGAUCUUCUCGAUCUAACAAAAAAGACAAAUCUGCCACAAAGCUUGAGAGCAUCUUCGGAUGCAGAGGCGGCAGCCUUCGGUGGCGCGAUAGCGCCAACGUUCUCAACUAUGACAUGAAAAACGCGUGCUCCGUUGAAGGGAGUUUAUCAUG	0.554
GGAUCUUCUCGAUCUAACAAAAAAGACAAAUCUGCCACAAAGCUUGAGAGCAUCUUCGGAUGCAGAGGCGGCAGCCUUCGGUGGCGCGAUAGCGACAACGUUCUCAACUAUGACACGCAAAACGCGUGCUCCGUUGAAUAGAGUUUAUCAUG	-2.71
GGAUCUUCUCGAUCUAACAAACAAGACAAAUCUGCCACAAAGCUUGAGAGCAUCUUCGGAUGCAGAGGCGGCAGCCUCCGGUGGCGCGAUAGCGCCAGCGUGCUCAACUAUGACACGCAAAACGCGUGCUCCGUUGAAUGGAGUUUAUCAGG	≤ -4.2
GGAUCUUCUCGAUCUAACAAAAAAGACAAAUCUGCCACAAAGCUAGAGAGCAUCUUAGGAUGCAGAGGCGGCAGCCUUCGGUGGCGCGAUAGCGCUAACGUUCUCAACUAUGACACGCAAAACACGUGCUCCGUUGAAUGGAGUUUAUCAUG	-3.11
